Assay results taken from patent publication US20110065652A1.
Values belong to the binder of their own block, whether it stands above or below them. Bridge positions count the residues as written; N and C are the ends. Square brackets hold non-standard residues; d marks the D form. Orn = NCCC[C@H](N)C(=O)O; Dab = NCC[C@H](N)C(=O)O

Tests used:
[1] = molecular target: human recombinant melanocortin-4 receptor (hMC4-R) (human) (UniProt P32245); assay: cell-based or functional assay
[2] = molecular target: human recombinant melanocortin-5 receptor (hMC5-R) (human) (UniProt P33032); assay: competitive binding against Eu-NDP-α-MSH, HEK-293 hMC5-R membranes
[3] = molecular target: human recombinant melanocortin-4 receptor (hMC4-R) (human) (UniProt P32245); assay: competitive binding against [I125]-NDP-α-MSH, HEK-293 hMC4-R membranes
[4] = molecular target: melanocortin-1 receptor (MC1-R), endogenous in B-16 mouse melanoma cells (mouse) (UniProt Q01727); assay: competitive binding against [I125]-NDP-α-MSH, B-16 mouse melanoma membranes
[5] = molecular target: human recombinant melanocortin-3 receptor (hMC3-R) (human) (UniProt P41968); assay: competitive binding against labelled NDP-α-MSH (I125 or Eu), HEK-293 hMC3-R membranes
human recombinant melanocortin-3 receptor (hMC3-R) (human), sequence (P41968 whole entry): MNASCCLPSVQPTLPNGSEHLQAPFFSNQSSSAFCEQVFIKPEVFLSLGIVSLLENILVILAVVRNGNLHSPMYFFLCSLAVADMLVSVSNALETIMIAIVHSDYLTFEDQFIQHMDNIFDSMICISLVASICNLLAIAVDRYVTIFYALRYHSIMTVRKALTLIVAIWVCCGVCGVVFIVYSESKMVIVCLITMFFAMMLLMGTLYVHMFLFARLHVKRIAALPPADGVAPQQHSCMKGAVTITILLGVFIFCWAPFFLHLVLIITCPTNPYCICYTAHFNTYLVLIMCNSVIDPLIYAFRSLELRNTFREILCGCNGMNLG

human recombinant melanocortin-4 receptor (hMC4-R) (human), sequence (P32245 whole entry): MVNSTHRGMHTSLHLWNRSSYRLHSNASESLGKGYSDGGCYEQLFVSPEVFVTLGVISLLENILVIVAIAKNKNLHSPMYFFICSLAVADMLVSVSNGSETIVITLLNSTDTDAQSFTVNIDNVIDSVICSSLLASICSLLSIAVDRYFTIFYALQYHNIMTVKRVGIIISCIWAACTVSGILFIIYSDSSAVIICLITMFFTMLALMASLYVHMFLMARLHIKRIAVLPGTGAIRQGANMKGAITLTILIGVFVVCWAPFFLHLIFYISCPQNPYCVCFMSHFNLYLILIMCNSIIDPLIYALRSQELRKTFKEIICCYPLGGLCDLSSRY
human recombinant melanocortin-5 receptor (hMC5-R) (human), sequence (P33032 whole entry): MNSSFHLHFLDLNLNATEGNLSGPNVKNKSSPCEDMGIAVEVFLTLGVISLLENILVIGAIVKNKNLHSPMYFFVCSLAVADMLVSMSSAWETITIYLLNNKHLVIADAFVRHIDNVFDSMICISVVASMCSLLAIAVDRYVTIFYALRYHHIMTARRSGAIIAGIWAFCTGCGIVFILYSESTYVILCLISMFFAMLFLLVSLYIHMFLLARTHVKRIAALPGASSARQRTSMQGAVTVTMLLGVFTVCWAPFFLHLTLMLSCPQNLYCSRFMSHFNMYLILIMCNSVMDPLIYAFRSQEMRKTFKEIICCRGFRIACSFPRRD
melanocortin-1 receptor (MC1-R), endogenous in B-16 mouse melanoma cells (mouse), sequence (Q01727 whole entry): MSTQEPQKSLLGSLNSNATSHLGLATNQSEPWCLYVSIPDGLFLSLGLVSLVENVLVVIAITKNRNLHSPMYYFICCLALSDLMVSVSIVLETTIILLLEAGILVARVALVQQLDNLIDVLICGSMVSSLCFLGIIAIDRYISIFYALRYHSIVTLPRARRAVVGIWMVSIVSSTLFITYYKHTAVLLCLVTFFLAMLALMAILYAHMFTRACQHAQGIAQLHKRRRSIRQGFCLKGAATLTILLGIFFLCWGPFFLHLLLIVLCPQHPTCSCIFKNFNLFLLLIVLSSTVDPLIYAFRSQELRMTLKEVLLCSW

EC50 (cAMP accumulation in HEK-293 cells expressing hMC4-R) [1]: 0.3 nM
intrinsic activity (cAMP, NDP-α-MSH is 100%) [1]: 94%
Ki [2]: 300 nM
Ki [3]: 0.65 nM
Ki [4]: 1 nM
Ki [5]: 74 nM
B1: cyclic peptide of Example 8.3, Ac-Arg-cyclo(Glu-Dab-D-Phe-Arg-Trp-Orn)-NH2 (peptide)
peptide: Ac-RE[Dab][dF]RW[Orn]-NH2
modifications: lactam 2-7; also: TFA salt

intrinsic activity (cAMP, NDP-α-MSH is 100%) [1]: 91%
Ki [2]: 2370 nM
Ki [3]: 8 nM
Ki [4]: 4 nM
Ki [5]: 410 nM
B2: cyclic peptide of Example 8.4, Ac-Arg-cyclo(Glu-Dab-D-Phe-Arg-Trp-Orn)-OH (peptide)
peptide: Ac-RE[Dab][dF]RW[Orn]-OH
modifications: lactam 2-7; also: acetate and TFA salts
